Laboratory results published in the nanobody polyreactivity screen of Harvey et al. (2022).

Assay: yeast display, Sf9 membrane polyspecificity reagent, FACS + sequencing; frameworks hold sequencing errors
Procedure, shortened: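 Nanobodies from a synthetic yeast display library (Saccharomyces cerevisiae BJ5465), induced 36–48 hours with galactose, were stained 1 hour at 4 °C with 10% biotinylated, detergent-solubilized Sf9 membrane reagent, enriched on streptavidin microbeads, then FACS-sorted. Anti-HA (expression) and streptavidin (reagent binding) fluorescence set low and high (top ~1%) gates. Polyreactivity labels come from the gate of origin. Genes were colony-PCR amplified, MiSeq 2 × 250 sequenced and filtered by CDR length.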

Row | Sequence | polyreactivity (PSR sort gate)
1 | QVQLVESGGGLVQAGRSLRLSCAASGYIFDTNAMGWYRQAPGKERELVAAITKSGGSTYYADSVKGRFTISRDNAKNTVYLHMNSLKPEDTAVYYCAARGTSKRWSLYDYWGQGTQVTVSS | low polyreactivity
2 | QFQLVESGGGLVQAGGSLRLSCAASGRTFSGNTMGWYRQAPGKERELVAAITGRGGSTYYADSVKGRFTISRDNAKNTVYLQMNCLKPEDTAVYYCAALRYTFAGRFDYWGQGTQVTVSS | high polyreactivity
3 | QVQLVESGGALVQAGGSLRLSCSASGSTLPGYAMVWYRQAPGKERELVAGISTRGGNTYYADSVKGRFTISRDNAKNTVYGQLNSLNPEDTAVYYCATTSSWRYGYWGEGTQVTVSS | high polyreactivity
4 | QVHLVESGGGLVQAGGSLRLSCAASGSIFRKYAMGWYRQAPGKERELLAAISVSGGSTYYADSVKGRFTISRDNAKNTVYLQMNSLNPEDTAVYYCAADSGPFNRYAPRGYWGQGTQVTVSS | low polyreactivity
5 | QVQLVESGGGLVQAGGSLRLSCAASGIIFLDYVMGWYRQAPGKERELVAAINSGGSTYYADSVKGRFTISRDNAKNTVYLQMNSLKPEDTAVYYCAADDYYKFDYWGQGTQVTVSS | low polyreactivity
6 | QVQLVESGGGLVQAGGSLRLSCAASGFTFPYYAKGWYRQAPGKERELVAASTYSGDSTDYADSVKGRFTISRDNAKNTVYLQMNSLKPEDTAVYYCNVTPDCAVTDDYWGQGTQVTVSS | low polyreactivity
7 | QVQLVESGGGLVQAVGSLRLSCAASGRTFNRYGMGWYRQAPAKEMELVAAIRWSGTTTYYADSVKGRFTISRDNAKNTVYLQMNSQKPEDTAVYYCAAGTNVGRYGYYYWGQGTQVTVSS | high polyreactivity
8 | QVHLVESGGGLVQAGGSLRLSCAASGRIFAYNAMGWYRQAPGKERELVAAITSRGTSTYYADSVKGRFTISRDNAKNTVYLQMNSLKQEDTAVYYCNADYNRNSVQVSLYDYWGQGTQVTVSS | low polyreactivity
9 | QVHLVESGGGLVQAGGSLRLSCAASGNTFGRYAMGWYRQAPGKEREFVAAIRWRGATTYYADSVKGRFTISRDNAKNTVDLQMNSLKPEDTAVYYCAAYYWGQGTGFDYWGQGTQVTVSS | high polyreactivity
10 | QVQLVESGGGLVQAGGSLRLSCAGSGSNFDVYTMGWYRKAPGKERELVAAINTGGGSTYYADSVKGRFTISRDNAMNTVYLQMNSLKPEDTAVYYCAASVYHYGPLYYWRQGTQVTVSS | low polyreactivity
11 | QVQLVESGGGLVQAGGSLRLSCAASGSIFPWYAMGWYRQAPGKEKELVAAIRWRDGRTYYADSVKGRFTISRDNAKNTVYLQMNSLKPEDTAVYYCAAVSTDKYVYGVDVYLYDYWGQGTQVTVSS | low polyreactivity
12 | QVQLVESGGGLVQAGGSLRLICAASGSIFFYNAMGWYRQAPGKERELVAAITTRGGSTYYADSVKGRFTISRDNAKNTVYLQMNSLKPEDTAVYYCARSSRGKLDYWGQGTQVTVSS | low polyreactivity
13 | QVQLVESGGGLVQAGGSLRLSWAASGRTFQYYTMGWYRQAPGKERELVAAISTGGSTHYADSVKGRFTISRDNAKNTVYLQMNSLKPEDTAVYYCAALWSRRRSRPRFPGDYWGQGTQVTVSS | high polyreactivity
14 | QVQLVESGGGLVQAGGSLRLSFAASGGIFWHYTRGWYRQAPGKERELVAAITRRGGSTYYADSVKGRFTISRDNAKNTVYLQMNSLKPEDTAVYYCAADFLPQSYNWYDYWGQGTQVTVSS | low polyreactivity
15 | QVQLVESGGGLVQAGGSLRLSCAASGSIFKWYAMGWYRQAPGKERELVAAITRGGSTNYADSVKGRFTISRDNAKNTVYLQMNSLKAEDTAVYYCNAVYTYRSGFGYWGQGTQVTVSS | low polyreactivity
16 | QVQLVESGGGLVQAVGRLRLSCAASGITLSLYAMGWYRQATGKETELVAAISRGGGRTYYADSVKGRFTISRDNAKNTVYLQMNSLKPEDTAVYYCNKGRNPGPAYFASVDYWGQGTQVTVSS | high polyreactivity
17 | QVQLVESGGGLVQARGSLRLSFAASGGIFYSYAMGRYRQAPGKEREFVAAIRRSGGRTYYADSVKGRFTISRDNAKNTVYLQMNSLKPEDTAVYYCAADGWYSGGHDYWGQGTQVTVSS | high polyreactivity
18 | QVQLVESGGGLVQAGGSLRLSCAASGIIFRYYDMGWYRQAPGKERELVARITSRGGTYYADSVKGRFTISRDNATNTVYLKMNSLKPEDTAVYYCAASYLLTHGYAYNYWGQGTQVTVSS | high polyreactivity
19 | QVQLVESGGGLVQAGGSLRLRCAASGRIFDWYALGWNRQAPGQERELVAAITSGGSTYYADSVKGRFTISRDNAKNTVYLQMNSLKTEDTAVYYCAADLYYWGDSDYWGQGTQVTVSS | low polyreactivity
20 | QVQLVESGGGLVQAGGSLRLSCAASGRTFWNYAKGWYRQAPGNERELVAVIRFSDGSTYYADSVKGRFTISRDNAKNTVYLQMNSLKPEDTAVYYCAAKGPRRWGSGFDYWGQGTQVTVSS | low polyreactivity
21 | QVQLVESGGGLVQAGGSLRLSCAASGLTFYVNARGWYRQAPGKERELVATISGSGSTNYADSVKGRFTISRDNAKNTVYLQMNSLKPEDTAVYDCNAGWAQDPSNYWGQGTQVTVSS | high polyreactivity
22 | QVQLVESAGGLVQAGGSLRLSCAASGRILPSNAMGWYRQAPGKERELVAGITSGGSTDYADSVKGRFTISRDNAKNTVYLQMNSLKPEDTGVFYCAADSRRYGVRFDYWGQGTQVTVSS | low polyreactivity

Row | Sequence | polyreactivity (PSR sort gate)
23 | QVQLVESGGGLVQAGGSLRLSCAASGFTFPIYAMGWSRQAPGKEWELVAAISKGGARTYYADSVKGRFTISRDNAKNTVYLQMNSLNPEDTAVYYCAALGPGGWYDYWGQGTQVTVSS | high polyreactivity
24 | QVQLVESGAGLVQAGGSLRLSCAASGSTFSYYAMGWSRQAPGKERELVAAITSSGGSTYYADSVKGRFTISRDNAKNTVYLQMNSLKQEDTAVYYCNTAYHVPYDYWGQGTQVTVSS | low polyreactivity
25 | QVQLVESGGGLVQAGGSLRLSCAASGNTLDAYAMGWYRQAPGKERELVAAITSGGSTYYADSVKGRFTISRDNAKNTVYLQMNILKPEDTAVYYCNADGHPSDPGYDYWGQGTQVTVSS | low polyreactivity
26 | QVQLVESGGGLVQAGGSLRLSCAASGSTFRTYAMGWYRQAPGKERELVAAIRSRGGSTYYADSVKGRFTISRDNAKNTVYLLMNSLKPEDTAVYYCNAVPRWSYVDEDSWGQGTQVTVSS | high polyreactivity
27 | QVQLVESGGGLVQAGGSLRLSCAASGSIFPRYAMGWYRQAPGKERELVAAITNGGSTDYADSVKGRFTISRDNAKKTVYLLMNSLKPEDTAGYYCAADLAVGIYPEDGDYWGQGTKVTVSS | low polyreactivity
28 | QVQLVESGGGLVQAGGSLRLSCAASGSILYRYTMGWYRQAPGKERELVAAITKRGGRTYYADSVKGRFTISRDNAKNTVYLQMNSLKPEDTAVYYCAAKYYTGGSFEMYYWGQGTQVTVSS | high polyreactivity
29 | QVQLVESGGGLVQAGGSLRLSCAASGFILSRYTMGWYRQAPGKERELVATISSGGRTYYADSVKGRFTISRDNAKNTVYLQMNSLKPEDTAVYYCAAAYTYWRISGNRYLYDYWGQGTQVTVSS | high polyreactivity
30 | QVQLVESGGGLVQAGGSLRLSCAASGIFTRYVMGWYRQAPGKERELVAAITANGGRTYYADSVKGRFTISRDNAKNTVYLQMNSLKPEDTAVYYCNADWRWKWSSRGGYWGQGTQVTVSS | high polyreactivity
31 | QVQLVESGGGLVQAGGSLRLSCAASGLTFSRYAMGWYRQAPGKERELVAAITWSGSSTYYADSVKGRFTISRDNAKNTVYLQMNSLKPEDTAVYYCAARYGYSRGPYYRSDYWGQGTQVNVSS | high polyreactivity
32 | QVQLVESGGGLVQAGGSLRLSCAASGITFYDNAMGWYRQAPGKERELVAGISYDGDSTYADSVKGRFTISRDNAKNTVYLQMNSLKPEDTAVYYCAALGPYDWLWAGDYWGQGTQVTVSS | low polyreactivity
33 | QVQLVESGGGLVQAGGSLRLSCAASGLTFYSYAMGWYRQAPGKERELVATIRWSGGSTYYADSVKGRFTISRDNAKNTVYLQMNSLKPEDTAVYYCATSSTHSRGDEYWGQGTQVTVSS | low polyreactivity
34 | QVQLVESGGGLVQAGGSLRLSCAASGIIFRRYAMGWYRQAPGKERELVAAISSRGGSTYYADSVKRRFTISRDNAKNTVYLQMNSLKPEDTAVYYCAKGFSGTGGSGDFGYWGQGTQVTVSS | high polyreactivity
35 | QVQLVESGGGLVQAGGSLRLSCAASGITFGRNTMGWYRQAPGKERELVAAIDSGGNTYADSVKGRFTISRDNAKNTVYLQMNSLKPEDTAVYYCAVDGGEFSSYGYWGQGTEVTVSS | low polyreactivity
36 | QDQLVESAGGLVQAGGSLRLSCAASGRTFVTNTMGWSRQAPGKERELVAAISSRGGTTYYADSVKGRFTISRDNAKNTVYLQMNSLKPEDTAVYYCNTGTRAIQRDGFEYWGQGTQVTVSS | low polyreactivity
37 | QVQLVESGGGLVQAGGSLRLSCAASGRIFYGNAMGWYRQPPGKERELFAGITRSSGTSTYYADSVKVRFTISRDNAKYTVYLQMNSMNPEDTAVYYCAAPPDSYYYYKVPVVPYDYWGQGTQVTVSS | low polyreactivity
38 | QVQLVESGGGLVQAGGSLRLSCAASGRIFRYYAMGWYRQAPGKERELVASITSGARTSYADSVKGRFTISRDNAKNTVYLQMNSLKPEDTAVYYCAPGYSYSPGRMGYWGQGTQVTVSS | high polyreactivity
39 | QVQLEESGGGLVQAGGSLRLSCAASGRIFGYYPMGWYRQATGKERELVAGISRSGGSTYYADSVKGRFTISRDNAKNTVFLQMISLKPEDTAVYYCAKRVSYYGRYRPYDYWGQGTQVTVSS | high polyreactivity
40 | QVQLVESGGGLLQAGGSLRLSCAASGSIFYINAKGWYRQAPGKERELVAAITSDGSTYYADSVKGRFTISRDYANYTVYLQLNSLKPEYSAVYYCAADLTSDQYLYYWYWFSSWGQGTQGTVSS | low polyreactivity
41 | QVQLVESGGGLVQAGGSLRLSCAASGSTFSYYAMGWYRQAPGKERELVAAITRGGSTYYADSVKGRFTISRDNAKNTVYLQMNSLKPEDTAVYYWAGQLLRYRYYYWGQGTQVNVSS | high polyreactivity
42 | QVQLVESGGGLVQAGGSLRLSCAASGIIFRGNAMGWYRQAHGKERELVAAISSAGSTNYADSVKGRFTISRDNAKNTVYLQMNSLKPEVTAVFYCAKGSIKYHVTLRGRGYYWGQGTQVTVSS | low polyreactivity
43 | QVHLVESGGGLVEAVGSLRLSCAASGRIFARYAMGCYRQAPGKERQLVATITRVGSTNYADSVKRPFTISRDNAKTTVYLQMNSLKPEDTEGFYCNADIRRNGGYAHEYWVQGTQVTVSS | low polyreactivity
